Data on 30 sequences can be found in the nanobody polyreactivity screen of Harvey et al. (2022).

The nature of the series: yeast display, Sf9 membrane polyspecificity reagent, FACS + sequencing; frameworks hold sequencing errors. In short, it runs like this:
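Using colony PCR, genes from sorted yeast display clones were amplified, then sequenced on MiSeq at 2 × 250 and filtered by CDR length. The clones had been stained with 10% biotinylated, detergent-solubilized Sf9 membrane reagent for 1 hour at 4 °C and sorted by FACS into low and high (top ~1%) gates on anti-HA and streptavidin fluorescence. Polyreactivity labels come from the gate of origin.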
Turning to “QDQLVESGGGLVQARGPLRLSCSASGFNFSNYAMGWYRHAPGKERELVAAISFTGSNTYYADSVKGRFTISRDNAKNTVYLQMNSLKPEDTAVYYWNDPLVWGVYAAQNWDEGYWGQGTQVTVSS”, the “polyreactivity (PSR sort gate)” value is “low polyreactivity”.
“QVQLVESGGGLVQAGGSLRLSCAASGRTFVVYAMGWYRQAPGKERELVASISSIGDITNYADSVKGRFTISRDNAKNTVYLQMNSLKPEYTAVYYCTAPIGGSYNTRRAAEYDYWGQGTQVTVSS”: the “polyreactivity (PSR sort gate)” value is listed as “low polyreactivity”.
In the case of “QVQLVESGGGLVQAGGSLSLTCDAYGRTIYKYGMGWYREAPGKERDLVARINSNGGSTYYADSVKGRFTISRDNAKNTVYLELISLKPEDTAVYYCARSYVRSYGYYYWGQGTQVTVSS”, the “polyreactivity (PSR sort gate)” value is reported as “low polyreactivity”.
In the case of “QVQLVESGGGLVQAGGNLRLSCAASGGIFYLYAMGWYRPAPGKERELVASINWRSATTYYADSVKGRFTISRDNAKNTVYLQMNSLKPEDTAVYYCNVQWYGGYDYWGQGSQVTVSS” it was “low polyreactivity”; in that of “QVQLVESGGGLVQAGGSLRLSCAASGRIFKENAMGWYRQAPGKERELVAAISSGASTSYADSVKGRFTISRDNAKNTVYLQMNSLKPEDTAVYYCNRGGDLYYPGWLFDYWGQGSQVTVSS”, “low polyreactivity”; in that of “QVQLVESGGGLVQAGGSLRLSCAASGSIFRRYAMGWYRKAPGKERELVAGISRGGGITYYADSVKGRFTISRDNAKNTVYLQMNSLKPEDTAVYYCAARIGATYWVDWTHRAYDYWGQGTQVTVSS”, “high polyreactivity”.
In the case of “QVQLVESGGGLVQAGGSLRLSCAASGRIFGFNAMGWYRQAPGKERELVAGITDSSGRTNYADSVKGRFTISRDNAKNTVYLQMNSLKPEDTAVYYCAKASAYGLANDYDYWGQGTQVTVSS” it was “low polyreactivity”.
In the case of “QVQLVESGGGIVQAGGSLRLSCAASGFTYWFYAMGWYRQAPGKERELVAAISRGGSTYYADSVKGRFTFSRDKAKNTVYLQMNSLKPEDTAVYYCAADFVHRGYYYWGQGTQVTVSS” it was “high polyreactivity”.
As to “QVQLVESGGGLVKAGGSLRLSCAASGSIIGFYAMGWYILAPGKERELVAAITRGGGSTFYADSVKGRFTFSRDNAKNTVYLQMNSLKPEDTAVYYCAATVYRYHGPGYYYWGQGTQVTVSS”, the “polyreactivity (PSR sort gate)” value is “high polyreactivity”.
Under “QFQLVESGGGLVQAGGSLRLSCAASGRTFTSNAMGWYRQAPGKERELVAAIDDGGSTNYADSVKGRFTISRDNAKNTVYLQMNSLKPEDTAVYYCATGYWELRYDYWGQGTQVTVSS” stands “low polyreactivity”.
In the case of “QVQLVESGGGLVQAGGSLRLSCPASGSIFSAYAMGWYRQAPGNEREFVAAITRRGGNTYYADSVKGRFTISRDNAKNTVYLQMNSLKPEDTAVYYCAAIRRQKGLWDYYYWGQGTQVTVSS” it was “low polyreactivity”; in that of “QVQLVESGGGLVQARGSLRLSCAASALTFRIYDMGWYRQAPGKERELVAAITRGGSTYADSVKGRFTISRDNAKNTVYLQMNSLKPEDTAVYYCAARVRSTSQVSASPVWYYYWGQGTQVTVSS”, “high polyreactivity”.
In the case of “QVQLVESGGGLVQAGGSLRISCAASGSIFPTYAMGWYRQAPGKERELVAAISGSGGSTYYADSVKGRFTISRDNAKNTVYFQINSLKPEDTAVYYCAVRRRRYHTYYRGYDNWGQGTQVTVSA” it was “low polyreactivity”; in that of “QVQLVESGGGLVQAGGSLRLSCAASGRTFGSNAMGWYRQAPGKERELVAAISVRGGRTYSADSVKGRFTISRDNAKNTVSLQMNSLKPEDTAVYYCAADPYPISKYWFYHAVDYDSWGQGTQVTVSS”, “high polyreactivity”.
Consider “QVQLVESGGGLVQAGSSLRLSCAASGRTFGGYVMGWYRQAPGKERELVAAISSSAGSTYYADSVKGRFTISRDNAKNTVYLQMNSLKPEDTAVYYCAKRSYNPYDHYYRYQYGYWGQGTQVTVSS”, for which the “polyreactivity (PSR sort gate)” value is “high polyreactivity”.
In the case of “QVQLVESGGGLVQAGGSLRLSCAASGSILYIYAMGWYRQAPGKVRELVAAITGSGGTTNYADSVKGRFTISRDNAKNTVYLQMNSLKPEDTAVYYCNIGSYYSCYDFWGQGTQVTVSS” it was “low polyreactivity”; in that of “QVQLVESGGGLVQAGGSLRLSCAACGRTFQWYPMGGFRQAPGTERELVAAISWSGTSTYYADSVKGRFTISRDNAKHTVYLQMNSLKPEDTAVYYCNKPCDVWDHDYDYWGQGTQVTVST”, “low polyreactivity”; in that of “QVQLVESGGGLVQAGGSLRLSCAASGLIFLRNAMGWYRQAPGKERELVAAISRSGGSTYYADSVKGRFTISRDYAKNTVYLQMNSLKPDDTAVYYCAKYGYGGVIPGPDHYDYWGQGTQVTVSS”, “high polyreactivity”.
For “QVQLVESGGGLVQAGGSLRLSCAASGRIFYPYAMGWYRQAPGKERELVAAISWSTGNTYYADSVKGRFTISRDNAKNTVYLQMNSLKPEDTAVYYCNARLAPVRRYWYSGYDYWGQGTQVTVSS”, the “polyreactivity (PSR sort gate)” value is on record as “high polyreactivity”.
Under “QVQLVESGGGLVQAGGSLRLSCAASGRIFWRYAMGWYRQAPGKERQLVAGITYSGGRTYYADSVKGRFTISRDNAKNTVYLQMNSLKPEDTAVYYCAARGYFDALFDYWGQGTQVTVSS” stands “low polyreactivity”.
In the case of “QVQLVESGGGLVQAGGSLRLSCAASGFTFDSNVMGWYRQAPGKEREVVAAITGDDTTYYADSVKGRFTISRDNAKNTVYLQMNSLKPEDTAVYYCAADETESLEYTAYDMYYWGQGTQVTVSS”, the “polyreactivity (PSR sort gate)” value is “low polyreactivity”.
In the case of “QVQLVESGGGLDQAGGSLRLSCAASVSNFEYYVMGWYRQAPGTERELVAVIRRSSGSTYYADSVKGRFTISRDNAKNTVYLQMNSLKPEDTAVYYCAARRYEPIIWHRMDYCGQGTQVTVSS” it was “low polyreactivity”; in that of “QVQLVESGGGLVQAGRSLRLSCAASGLTFLAYDMGWYRQAPGKVRQLVAAITGGGSTHYADSVKGRFTISRDNAKNTVYLQMTSLKPDDTAVSYCNADVYVYSVTSHYPSYRLDYWGHGTQVTVSS”, “high polyreactivity”; in that of “QVQLQESGGGLVQAGGSQRLSCAASGSISILQSMRWYRQAPGKERELVAGINWGATTYYADSVKGRLTSCRDYAKNTVYLEMNSLNPEDTAVYYCAVPTYYTYPLLYWGQGTQVTVSS”, “low polyreactivity”.
Under “QVQLVESGGGLVQAGGSLRLSCAASGSIFSYYVMGWYRQAPGKERELVAAISYSGGRTYYADSVKGRFTISRDNAKNTVYLQMNSLKQEDTAVYYCARRSYVYPYGYDYWGQGTQVTVSS” stands “high polyreactivity”; under “QVQLVESGAGLVQAGGSLRLSCAASVSIFDIYAMGWYRQAPGKERELVADISWSGGSTYYADSVKGRFTISRDNAKNSVYLQMNSLKPEDTAVFDCAAELYGFTVDPGDYWGQGTQVTVSS”, “low polyreactivity”; under “QVQLVESGGGLVQAGGSLRLSCAASGSILRSNAMGWYRQAPGKERELVAVISNDDSTYYADSVKGRFTISRDNATNTVYLQMNSLKPEDTAVYYCNAVYYYFFRWHPIYDSWGQGTQVTVSS”, “low polyreactivity”.
Under “QVQLVESGGGLVQAGGSLRLSCAASGRTFRWYAMGWYRQAPGKERELVAAIRSGGRTYYADSVKGRFTISRDNAKNTVYLQMNSLKPEDTAVYYCAALAVTYRYDYWGQGTQVTVSS” stands “high polyreactivity”.
On to “QVQLVESGGGLVQAGGSLRLSCAASGFIFRYNAMGWYIQAPGKERELVASIDWSGGSTYYADSVKGGFTISRDNAKITVYLQMNSLKPEDTEVYYCAADTSYWYDYYIDYVGYYYWGQGTQVTVSS”, for which the “polyreactivity (PSR sort gate)” value was “high polyreactivity”.
Under “QVQLVESGGGLVQAGGSLRLSCAASGIIFSFYAMGWYRQAPGKERELVADITLSGGRTYYADSVKGRFTISRDNAKNTVYLQMNSLKPEDTAVYYCNADTYERGDYWGQGTQVTVSS” stands “high polyreactivity”.
